The text below walks through data of WO2006085967A2.

Test [1] concerns the target T1, extracellular region of human FcγRIIIa, allotype not stated where cited (His/GST-tagged) (human) (UniProt P08637). In words: AlphaScreen competition, Figure 15.
For test [2], the target named is T1, extracellular region of human FcγRIIIa, allotype not given (His/GST-tagged) (human). In words: AlphaScreen, Figure 15; fold vs WT for FcγRIIIa divided by fold vs WT for FcγRIIb. On the technique in general: In Alpha technology, singlet oxygen from a donor bead excites a nearby acceptor bead.
For test [3], the target named is extracellular region of human F158 FcγRIIIa with C-terminal 6x His-tag and GST-tag (human) (UniProt P08637). In words: SPR (Table 3, not reproduced); receptor immobilized, antibody flowed.
Chain of extracellular region of human F158 FcγRIIIa with C-terminal 6x His-tag and GST-tag (human) (P08637 17-208): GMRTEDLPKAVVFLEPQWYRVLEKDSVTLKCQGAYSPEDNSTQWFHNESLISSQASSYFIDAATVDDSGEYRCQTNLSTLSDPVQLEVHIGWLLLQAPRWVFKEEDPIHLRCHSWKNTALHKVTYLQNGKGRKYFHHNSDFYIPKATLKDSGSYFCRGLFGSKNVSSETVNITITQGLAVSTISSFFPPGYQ
Test [4] addresses human FcγRIIIa on PBMCs expressing heterozygous V158/F158 FcγRIIIa (human) (UniProt P08637). In words: cell-based or functional assay.
Test [5] addresses extracellular region of human V158 FcγRIIIa with C-terminal 6x His-tag and GST-tag (human) (UniProt P08637). Kind of test: SPR (Table 3, not reproduced); receptor immobilized, antibody flowed.
In test [6] the target is extracellular region of human F158 FcγRIIIa with C-terminal 6x His-tag and GST-tag (human) (UniProt P08637). Kind of test: SPR; receptor immobilized, antibody flowed. For orientation: Surface plasmon resonance follows binding to a sensor surface in real time, without labels.

For orientation: Kd means a measure of binding affinity in units of concentration. Lower therefore signals higher affinity.

T1 sequence (P08637 17-208): as above
Chain of human FcγRIIIa on PBMCs expressing heterozygous V158/F158 FcγRIIIa (human) (P08637 17-254): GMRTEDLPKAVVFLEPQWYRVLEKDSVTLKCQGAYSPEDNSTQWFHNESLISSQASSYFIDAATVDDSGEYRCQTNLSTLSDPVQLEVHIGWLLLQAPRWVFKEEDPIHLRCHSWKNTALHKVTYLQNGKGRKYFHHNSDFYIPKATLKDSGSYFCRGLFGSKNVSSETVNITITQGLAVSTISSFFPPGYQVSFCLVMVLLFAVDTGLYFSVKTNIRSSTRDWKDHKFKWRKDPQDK
Chain of extracellular region of human V158 FcγRIIIa with C-terminal 6x His-tag and GST-tag (human) (P08637 17-208 F176V): as the sequence (P08637 17-208) above, with F160V counted along it

Turning to “S239D/I332E Fc variant antibody (Figure 15; antibody context not stated)”, the FcγRIIIa-fold (fold affinity relative to WT) in test [1] amounted to 192 fold.
In test [1], “S239D/A330L/I332E Fc variant antibody (Figure 15; antibody context not stated)” came in with a FcγRIIIa-fold (fold affinity relative to WT) of 139 fold. In addition, the FcγRIIIa-fold:FcγRIIb-fold ratio in test [2] came out at 18.
Take I332E alemtuzumab (antibody): the fold improvement over WT in test [3] came out at 10.1 fold.
Take S239D/I332E alemtuzumab (antibody): in test [4], the ADCC log(EC50), DoHH-2 target cells turned out to be 0.49 and the fold enhancement in ADCC over WT alemtuzumab was found to be 3.3 fold.
With “S298A/E333A/K334A alemtuzumab (antibody)”, the figures for the fold improvement over WT in test [5] and in test [3] were 1.7 fold and 4.7 fold, respectively.
In test [6], V264I/I332E alemtuzumab (antibody) had a Kd of 52 nM. For the same substance, the fold improvement over WT in test [5] stood at 4 fold. In test [3], this substance came in with a fold improvement over WT of 14 fold. Moreover, in test [4], the ADCC log(EC50), DoHH-2 target cells came out at 0.6 and the fold enhancement in ADCC over WT alemtuzumab was 2.5 fold.
